According to article PMC5286379:

Legend:
Experiment in all cases: EMSA
Sox2 HMG (79-aa protein) = settings: Sox2-Oct heterodimer on SoxOct DNA element CCATGGACATTGTAATGCAAAAGAAGCTG, n = 3-13, read off a plot
Oct4^151M POU domain = settings: homodimer on MORE (OctOct) DNA element TCCTCATGAATATTCATGAGGA; n = 3-13; parent: est. 7; read off a plot
Oct6^151S POU domain = settings: homodimer on MORE (OctOct) DNA element TCCTCATGAATATTCATGAGGA; n = 3-13; parent: est. 160; read off a plot

| Substance | other: cooperativity factor (Sox2 HMG (79-aa protein); parent: est. 12) | other: cooperativity factor (Oct4^151M POU domain) | other: cooperativity factor (Oct6^151S POU domain) | other: cooperativity factor (Sox2 HMG (79-aa protein); parent: est. 4.5) |
| --- | --- | --- | --- | --- |
| Oct4 POU domain S151M | 29 | 140 |  |  |
| Oct6 POU domain M151S |  |  | 4 | 2.5 |
